Measurements reported in article PMC9300613 (2022).

Biological target: bovine brain αβ-tubulin (taxol-stabilised microtubules, dolastatin-induced rings or DARPin-capped free dimer … (bovine, UniProt Q6B856 1-445))
Assay: AMPPNP

Chain of bovine brain αβ-tubulin (taxol-stabilised microtubules, dolastatin-induced rings or DARPin-capped free dimer … (chain, as listed by the source, chain 1 of 2): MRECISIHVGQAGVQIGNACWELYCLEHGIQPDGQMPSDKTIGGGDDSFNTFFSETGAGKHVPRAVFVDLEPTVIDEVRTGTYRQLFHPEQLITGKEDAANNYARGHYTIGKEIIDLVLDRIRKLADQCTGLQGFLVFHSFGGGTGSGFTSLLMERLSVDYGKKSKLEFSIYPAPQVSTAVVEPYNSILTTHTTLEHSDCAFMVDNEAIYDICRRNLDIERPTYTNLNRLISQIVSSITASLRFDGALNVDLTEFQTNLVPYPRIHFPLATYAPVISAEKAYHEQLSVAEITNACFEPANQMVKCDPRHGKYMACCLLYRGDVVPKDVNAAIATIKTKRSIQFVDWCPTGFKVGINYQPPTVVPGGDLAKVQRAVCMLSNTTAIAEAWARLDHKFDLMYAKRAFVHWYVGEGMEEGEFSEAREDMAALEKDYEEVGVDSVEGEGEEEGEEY
Chain of bovine brain αβ-tubulin (taxol-stabilised microtubules, dolastatin-induced rings or DARPin-capped free dimer … (Q6B856 whole entry, chain 2 of 2): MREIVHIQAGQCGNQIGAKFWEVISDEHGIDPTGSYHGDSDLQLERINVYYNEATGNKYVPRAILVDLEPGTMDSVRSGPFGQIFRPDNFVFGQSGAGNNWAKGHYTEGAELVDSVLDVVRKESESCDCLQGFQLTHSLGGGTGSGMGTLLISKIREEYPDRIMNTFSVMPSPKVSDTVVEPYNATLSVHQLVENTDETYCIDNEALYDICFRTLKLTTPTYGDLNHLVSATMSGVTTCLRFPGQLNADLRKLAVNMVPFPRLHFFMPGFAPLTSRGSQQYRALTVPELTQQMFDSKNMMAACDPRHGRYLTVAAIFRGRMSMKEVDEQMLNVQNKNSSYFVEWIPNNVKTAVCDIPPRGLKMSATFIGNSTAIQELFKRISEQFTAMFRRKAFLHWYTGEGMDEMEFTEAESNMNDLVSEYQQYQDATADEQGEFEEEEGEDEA

Binder | Kd
HsKHC-MDN (human kinesin-1 heavy chain KIF5B construct equivalent to CaKip3-MDN) (domain or fragment) MADLAECNIKVMCRFRPLNESEVNRGDKYIAKFQGEDTVVIASKPYAFDRVFQSSTSQEQVYNDCAKKIVKDVLEGYNGTIFAYGQTSSGKTHTMEGKLHDPEGMGIIPRIVQDIFNYIYSMDENLEFHIKVSYFEIYLDKIRDLLDVSKTNLSVHEDKNRVPYVKGCTERFVCSPDEVMDTIDEGKSNRHVAVTNMNEHSSRSHSIFLINVKQENTQTEQKLSGKLYLVDLAGSEKVSKTGAEGAVLDEAKNINKSLSALGNVISALAEGSTYVPYRDSKMTRILQDSLGGNCRTTIVICCSPSSYNESETKSTLLFGQRAKTIKNTVCVN | 350 nM
CaKip3-MDN (Candida albicans Kip3 motor domain and slightly truncated neck-linker, residues 1-436) (domain or fragment) MSYPNSLGSPATVTSTSVPTAKQSSISVAVRVRPFTEAESNRLVKIDNDDVFLGDGCLTSDNNNNNNNSNSNGNGNGNGSSAANSSGASTSRRAIFNTLGGLRKIINVVDDRMLIFDPPETNPLTKMQRNAFPNSFKGSRIREHRFVFDRLFDEDCTQDQVYRNTTQPLLDSVLDGYNATVFAYGATGCGKTHTISGTPEDPGVIFLTMKELYNRIEELKDTKIIDISLSYLEIYNETIRDLLNPMTQCKNLVIREDANNKISVSNLSRHRPNSVEEVMQLILEGNKNRTCSPTEANATSSRSHAVLQINVIQKDRTGDITEEHTFATLSIIDLAGSERAAATKNRGARLNEGANINKSLLALGNCINALCDPRRRNHVPYRDSKLTRLLKFSLGGNCKTVMIVCVSPSSQHYDETLNTLKYADRAKEIKTKLIRN | 43 nM
